T1: LbuC2c2-dHEPN1/dHEPN2 (Leptotrichia buccalis, UniProt C7NBY4 SEQ:1-1159, R472A,H477A,R1048A,H1053A)
T1 sequence: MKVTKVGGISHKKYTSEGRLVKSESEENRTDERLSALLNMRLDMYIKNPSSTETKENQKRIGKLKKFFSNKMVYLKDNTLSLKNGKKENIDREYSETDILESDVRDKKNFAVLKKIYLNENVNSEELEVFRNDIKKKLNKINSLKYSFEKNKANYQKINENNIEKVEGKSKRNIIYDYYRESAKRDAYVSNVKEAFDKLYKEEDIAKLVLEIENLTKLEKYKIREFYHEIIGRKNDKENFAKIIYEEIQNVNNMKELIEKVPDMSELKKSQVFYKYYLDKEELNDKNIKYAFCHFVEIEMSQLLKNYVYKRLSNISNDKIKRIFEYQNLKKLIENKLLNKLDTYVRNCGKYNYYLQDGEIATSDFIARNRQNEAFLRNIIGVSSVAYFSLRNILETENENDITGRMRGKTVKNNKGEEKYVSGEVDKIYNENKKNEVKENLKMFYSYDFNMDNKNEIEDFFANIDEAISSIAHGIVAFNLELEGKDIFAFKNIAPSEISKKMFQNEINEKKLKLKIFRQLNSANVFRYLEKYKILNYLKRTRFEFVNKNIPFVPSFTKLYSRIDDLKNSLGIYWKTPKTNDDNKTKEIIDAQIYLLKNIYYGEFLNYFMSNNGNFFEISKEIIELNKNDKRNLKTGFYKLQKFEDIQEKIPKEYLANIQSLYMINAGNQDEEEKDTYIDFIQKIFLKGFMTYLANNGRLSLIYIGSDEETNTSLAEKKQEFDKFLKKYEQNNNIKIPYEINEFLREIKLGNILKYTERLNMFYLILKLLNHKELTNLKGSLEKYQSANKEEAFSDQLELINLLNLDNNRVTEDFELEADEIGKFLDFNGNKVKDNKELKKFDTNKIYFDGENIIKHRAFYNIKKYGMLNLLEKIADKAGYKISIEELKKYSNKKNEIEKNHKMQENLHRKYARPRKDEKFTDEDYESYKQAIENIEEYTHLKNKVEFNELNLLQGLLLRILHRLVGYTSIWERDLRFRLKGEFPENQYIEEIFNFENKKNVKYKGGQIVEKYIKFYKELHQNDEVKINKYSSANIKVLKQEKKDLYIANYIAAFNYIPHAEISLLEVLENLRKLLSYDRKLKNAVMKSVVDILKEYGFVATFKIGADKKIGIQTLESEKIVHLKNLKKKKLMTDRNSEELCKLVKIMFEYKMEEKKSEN

T2: LbuC2c2-R1079A (Leptotrichia buccalis, UniProt C7NBY4 SEQ:1-1159, R1079A)
T2 sequence: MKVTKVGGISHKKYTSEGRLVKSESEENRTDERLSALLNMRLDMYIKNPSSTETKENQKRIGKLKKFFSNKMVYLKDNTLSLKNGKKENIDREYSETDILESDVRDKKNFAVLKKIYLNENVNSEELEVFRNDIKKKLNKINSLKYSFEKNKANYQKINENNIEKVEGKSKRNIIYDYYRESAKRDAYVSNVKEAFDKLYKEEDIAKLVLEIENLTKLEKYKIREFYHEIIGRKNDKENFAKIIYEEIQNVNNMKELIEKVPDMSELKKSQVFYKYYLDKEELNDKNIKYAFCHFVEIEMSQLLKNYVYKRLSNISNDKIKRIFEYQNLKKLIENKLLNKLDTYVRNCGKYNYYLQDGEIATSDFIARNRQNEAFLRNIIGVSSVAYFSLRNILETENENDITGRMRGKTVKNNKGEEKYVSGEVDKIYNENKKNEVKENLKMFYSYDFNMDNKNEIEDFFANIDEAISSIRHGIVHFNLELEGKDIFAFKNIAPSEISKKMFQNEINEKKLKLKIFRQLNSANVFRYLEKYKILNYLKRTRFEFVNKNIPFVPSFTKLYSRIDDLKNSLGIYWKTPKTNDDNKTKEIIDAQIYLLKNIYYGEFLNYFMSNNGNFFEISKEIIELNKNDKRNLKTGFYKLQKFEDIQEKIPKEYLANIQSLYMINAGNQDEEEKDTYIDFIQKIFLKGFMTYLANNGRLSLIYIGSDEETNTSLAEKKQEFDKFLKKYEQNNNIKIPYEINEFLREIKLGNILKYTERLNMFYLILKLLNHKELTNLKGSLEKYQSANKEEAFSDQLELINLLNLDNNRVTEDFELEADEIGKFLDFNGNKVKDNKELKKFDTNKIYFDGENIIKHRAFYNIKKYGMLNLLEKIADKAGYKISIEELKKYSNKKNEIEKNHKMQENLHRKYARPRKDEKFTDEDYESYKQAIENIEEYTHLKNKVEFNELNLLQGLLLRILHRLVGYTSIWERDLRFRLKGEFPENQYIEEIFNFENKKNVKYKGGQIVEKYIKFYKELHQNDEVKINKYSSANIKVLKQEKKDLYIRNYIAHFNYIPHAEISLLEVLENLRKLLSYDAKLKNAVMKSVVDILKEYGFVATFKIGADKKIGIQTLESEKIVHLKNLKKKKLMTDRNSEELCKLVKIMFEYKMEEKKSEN


Key:
LbuC2c2-dHEPN1/dHEPN2 = biological target: T1, LbuC2c2-dHEPN1/dHEPN2; assay: EMSA; ssRNA A, no Mg listed in EMSA buffer, 37 C; which A variant was used not stated; details: tags: His6-MBP removed by TEV, label: 5'-32P, hairpin
Procedure: (§1) The quantified data were fit to standard binding isotherms. Error bars represent the standard deviation from three independent experiments. […] Three independent experiments were conducted as described in the Methods. The gel was cropped for clarity. c, Quantified binding data from (b) were fitted to standard binding […]. Error bars represent the standard deviation from three independent experiments. […] The quantified data were fit to standard binding isotherms. Error bars represent the standard deviation from three independent experiments. Measured dissociation constants from three independent experiments (mean±sd) were 4.65±0.6 nM (LbuC2c2-WT) and 2.52±0.5 nM (LbuC2c2-R1079A). It is of note that these binding affinities differ from panel a. This difference is accounted for in a slight difference in the 5′ sequence of the guide with panel a guides beginning with a 5′-GGCCA . . . and panel d 5′-GACCA. While the native sequence guide (5′-GACCA) binds tighter to LbuC2c2, no difference is seen in the RNA targeting efficiencies of these guide variants (Extended Data FIG. 6c).
Electrophoretic mobility-shift assays. […]

LbuC2c2-R1079A = biological target: T2, LbuC2c2-R1079A; assay: filter; retains crRNA binding; Kd in truncated legend; details: tags: His6-MBP removed by TEV; label: 5'-32P; hairpin
Procedure: as §1
crRNA filter-binding assays. Filter binding assays was carried out in RNA processing buffer (20 mM HEPES pH 6.8, 50 mM KCl, 5 mM MgCl₂, […], 0.01% Igepal CA-630 and 5% glycerol). LbuC2c2 was incubated with radiolabeled crRNA (<0.1 nM) for 1 hr at 37° C. […]

| Binder | Kd (LbuC2c2-dHEPN1/dHEPN2) | binding result (LbuC2c2-R1079A) |
| --- | --- | --- |
| crRNA-A_GG (mature) ; target A ssRNA (ssRNA ; ssRNA) RNA 1: GGCCACCCCAAAAAUGAAGGGGACUAAAACAGGGGCAGAGAUGAUGACCCU RNA 2: GGCUCAUUUGCAGGGUUUAGCCAAAAGGGUCAUCAUCUCUGCCCCCUCUGCUGAUGCCCC | 1.62 nM |  |
| crRNA-A_GA (mature) (ssRNA) RNA: GACCACCCCAAAAAUGAAGGGGACUAAAACAGGGGCAGAGAUGAUGACCCU |  | binds |

From patent US20240182953, “METHODS AND COMPOSITIONS FOR DETECTING A TARGET RNA” (The Regents of the University of California, published 2024)
